From US20190055312A1 (CELL MEDICA, published 2019)
“And” between values parts separate entries of the source, which are not always exact repeats. Identical values can stand only once.

Legend:
[1] = molecular target: T1, natural form of PD-L1 expressed on the surface of ES-2 cells (human, UniProt Q9NZQ7 19-290); experiment: KinExA, ES-2 cells titrated against 50 pM scFv1, room temperature
T1 construct: whole, on cells; also called cell surface PD-L1; human natural form of PD-L1
Method: (§1) Duplicate measurements were prepared for each data point. […] These mixtures were incubated for 5 hours. […] These mixtures were incubated for 9 hours. […] All steps were carried out at room temperature. […] This voltage signal is used to calculate the KD value and activity of the scFv using the “n-curve analysis” of the KinExA® Pro software version 4.1.9 or 4.2.10 (FIG. 5) using the option “titrant as analysis concentration reference”.
These mixtures were incubated for 5 hours, centrifuged for 10 minutes at 3800×g, and supernatants were transferred to fresh tubes. […] All steps were carried out at room temperature.

[2] = molecular target: T2, recombinant human (rh) PD-L1 Fc fusion (RnD Systems, USA, cat. no. 156-B7) (human, UniProt Q9NZQ7 19-239); experiment: KinExA in solution, room temperature, PD-L1 Fc fusion titrated against constant scFv1, n-curve analysis
T2 construct: Bought reagent; also called human PD-L1 Fc fusion; not shown: Fc part of the bought fusion
T2 sequence (Q9NZQ7 19-239 limits assumed): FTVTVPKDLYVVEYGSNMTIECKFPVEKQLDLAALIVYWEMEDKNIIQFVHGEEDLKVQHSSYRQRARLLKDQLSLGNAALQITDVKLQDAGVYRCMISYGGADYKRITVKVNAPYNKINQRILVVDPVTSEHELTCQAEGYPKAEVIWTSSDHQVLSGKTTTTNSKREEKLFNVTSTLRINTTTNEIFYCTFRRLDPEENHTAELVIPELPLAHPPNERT
Method: as §1

[3] = molecular target: T3, rhPD-L2 Fc fusion (RnD Systems, USA, cat. no. 1224-PL) (human, UniProt Q9BQ51 20-219); experiment: binding ELISA, rhPD-L2 Fc fusion coated, Protein L-HRP detection
T3 construct: Bought reagent; also called human PD-L2; not shown: Fc part of the bought fusion
T3 sequence (looked up): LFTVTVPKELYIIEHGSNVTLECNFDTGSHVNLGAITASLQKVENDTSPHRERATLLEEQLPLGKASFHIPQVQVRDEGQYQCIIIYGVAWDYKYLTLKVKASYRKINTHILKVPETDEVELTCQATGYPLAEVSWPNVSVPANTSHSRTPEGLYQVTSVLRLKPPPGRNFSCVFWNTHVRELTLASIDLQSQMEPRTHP
Method: (§2) Plates were blocked with 1% BSA and 0.5% Tween-20 in PBS, pH7.2. A serial dilution of scFvs was prepared with concentrations of 5, 1 and 0.2 mcg/mL and added to plates.

[4] = molecular target: T4, rat PD-L1 Fc fusion (Sino Biological, China, cat. no. 80450-R02H) (Rattus norvegicus (Norway rat), UniProt D4AE25 19-239); experiment: binding ELISA: coated rat PD-L1 Fc fusion, detected with Protein L-HRP
T4 construct: Bought reagent; not shown: Fc part (and any linker) of the bought Sino Biological 80450-R02H fusion
T4 sequence (D4AE25 entry or part of it R02H R02H limits assumed): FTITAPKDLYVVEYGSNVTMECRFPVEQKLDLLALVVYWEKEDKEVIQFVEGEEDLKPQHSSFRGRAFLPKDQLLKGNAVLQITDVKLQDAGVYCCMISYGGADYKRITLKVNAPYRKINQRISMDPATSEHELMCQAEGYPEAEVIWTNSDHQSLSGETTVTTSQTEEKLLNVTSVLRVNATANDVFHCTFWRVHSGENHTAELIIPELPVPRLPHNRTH
Method: Plates were blocked with 1% BSA and 0.5% Tween-20 in PBS, pH7.2. A serial dilution of scFvs was prepared with concentrations of 1 mcg/mL, 333 ng/mL and 111 ng/mL and added to plates. […] Development was with TMB ELISA substrate solution (eBioscience, USA, cat. no. 00-4201-56).

[5] = molecular target: T2, recombinant human (rh) PD-L1 Fc fusion …; experiment: binding ELISA: coated rhPD-L1 Fc fusion, scFv1 in human serum, 4 h at 37 C, detected with Protein L-HRP
Method: (§3) After blocking with PBS, pH7.4 with, 1% BSA and 0.05% Tween-20, a series of 1:3 dilutions of 2.5 mcg/ml to 42 ng/mL serum/scFv samples was added to the ELISA plates in duplicate. […] The ELISA was developed with TMB ELISA substrate solution (eBioscience, USA, cat. no. 00-4201-56).

[6] = molecular target: monkey PD-L1 Fc fusion (Sino Biological, China, cat. no. 90251-C02H) (Rhesus macacque (Macaca mulatta)) (UniProt F6PJN1); experiment: KinExA in solution, room temperature, monkey PD-L1 Fc fusion titrated against constant scFv1, n-curve analysis
[7] = molecular target: T2, recombinant human (rh) PD-L1 Fc fusion …; experiment: competition ELISA: coated rhCD80-His, scFv titrated against constant 50 nM rhPD-L1 Fc fusion, bound PD-L1 Fc detected with anti-human IgG Fc-HRP
Method: Plates were blocked with 1% BSA and 0.05% Tween-20 in PBS, pH7.4. […] This mixture was incubated with the CD80 coated plates for 2 hours at room temperature. […] The ELISA was developed with TMB ELISA substrate solution (eBioscience, USA, cat. no. 00-4201-56).

[8] = molecular target: T2, recombinant human (rh) PD-L1 Fc fusion …; experiment: binding ELISA: coated rhPD-L1 Fc fusion, scFv1 in human serum, 20 h at 37 C, detected with Protein L-HRP
Method: as §3

[9] = molecular target: PD-L1 expressing CHO cells (Promega, CS187103) (human, UniProt Q9NZQ7 19-290); experiment: cell-based or functional assay
Chain of PD-L1 expressing CHO cells (Promega, CS187103) (Q9NZQ7 19-290): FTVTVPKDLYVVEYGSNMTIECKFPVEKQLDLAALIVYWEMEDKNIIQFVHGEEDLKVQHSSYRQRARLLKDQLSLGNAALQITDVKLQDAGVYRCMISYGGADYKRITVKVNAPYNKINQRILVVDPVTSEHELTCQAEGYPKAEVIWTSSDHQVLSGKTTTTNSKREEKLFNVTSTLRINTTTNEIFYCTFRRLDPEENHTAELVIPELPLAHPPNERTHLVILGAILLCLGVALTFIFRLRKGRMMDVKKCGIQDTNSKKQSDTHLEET

[10] = molecular target: T5, mouse PD-L1 Fc fusion (Sino Biological, China, cat. no. 50010-M03H or RnD Systems, USA, cat. no. 1019-B7-100) (Mus musculus, UniProt Q9EP73 19-238); experiment: binding ELISA, mouse PD-L1 Fc fusion coated, Protein L-HRP detection
T5 construct: Two bought reagents were used; not shown: Fc part of the bought fusion
T5 sequence (Q9EP73 19-238 limits assumed, stated change not applied): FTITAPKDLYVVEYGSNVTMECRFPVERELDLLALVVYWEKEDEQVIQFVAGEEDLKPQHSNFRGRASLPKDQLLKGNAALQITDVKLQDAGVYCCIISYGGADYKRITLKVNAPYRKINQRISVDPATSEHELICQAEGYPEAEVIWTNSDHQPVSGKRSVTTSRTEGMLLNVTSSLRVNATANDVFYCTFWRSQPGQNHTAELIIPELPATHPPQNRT

[11] = molecular target: T6, rhB7-H3 Fc fusion (RnD Systems, USA, cat. no. 1027-B3) (human, UniProt Q5ZPR3-2 29-245, limits assumed); experiment: binding ELISA, rhB7-H3 Fc fusion coated, Protein L-HRP detection
T6 construct: Bought reagent; also called human B7-H3; not shown: Fc part of the bought fusion
T6 sequence (looked up): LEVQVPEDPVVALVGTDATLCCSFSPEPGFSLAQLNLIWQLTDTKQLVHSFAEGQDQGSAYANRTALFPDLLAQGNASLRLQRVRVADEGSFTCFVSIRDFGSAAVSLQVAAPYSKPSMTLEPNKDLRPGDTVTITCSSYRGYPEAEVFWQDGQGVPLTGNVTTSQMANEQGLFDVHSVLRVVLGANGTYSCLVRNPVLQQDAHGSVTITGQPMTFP
Method: as §2

[12] = molecular target: T2, recombinant human (rh) PD-L1 Fc fusion …; experiment: binding ELISA: coated rhPD-L1 Fc fusion, scFv1 in human serum, 0 h at 37 C, detected with Protein L-HRP
Method: as §3

[13] = molecular target: T2, recombinant human (rh) PD-L1 Fc fusion …; experiment: binding ELISA: coated rhPD-L1 Fc fusion, scFv1 in PBS without incubation, detected with Protein L-HRP
Method: as §3

[14] = molecular target: monkey PD-L1 Fc fusion (Sino Biological, China, cat. no. 90251-C02H) (Rhesus macacque (Macaca mulatta)) (UniProt F6PJN1); experiment: ratio of KinExA KD values (human PD-L1 Fc fusion as reference)
[15] = molecular target: T2, recombinant human (rh) PD-L1 Fc fusion …; experiment: competition ELISA: coated rhPD-L1 Fc fusion, scFv titrated, bound biotinylated PD-1 Fc fusion (15 ng/mL) detected with streptavidin-HRP
Method: Plates were blocked with 1% BSA and 0.05% Tween-20 in PBS, pH7.2. A serial dilution of scFvs was prepared, with eleven 1:3 dilutions starting at 1 mcg/mL, and added to plates. […] Background level was determined in the absence of PD-1. The ELISA was developed with TMB ELISA substrate solution (eBioscience, USA, cat. no. 00-4201-56).

[16] = molecular target: T2, recombinant human (rh) PD-L1 Fc fusion …; experiment: competition ELISA, rhPD-L1 Fc fusion coated, displacement of biotinylated PD-1 Fc fusion
Method: Plates were blocked with 1% BSA and 0.05% Tween-20 in PBS, pH7.4. A serial dilution of IgGs was prepared, with eleven 1:3 dilutions starting at 1 mcg/mL, and added to plates. […] The ELISA was developed with TMB ELISA substrate solution (eBioscience, USA, cat. no. 00-4201-56).

[17] = molecular target: T7, human PD-L1-His (BioVision, USA, cat. no. 7429) (human, UniProt Q9NZQ7 19-238, limits assumed); experiment: KinExA in solution, human PD-L1-His titrated against constant IgG, n-curve analysis
T7 construct: Bought reagent without Fc tag, chosen to avoid avidity; also called His tagged PD-L1; not shown: His tag
T7 sequence (Q9NZQ7 19-238 limits assumed): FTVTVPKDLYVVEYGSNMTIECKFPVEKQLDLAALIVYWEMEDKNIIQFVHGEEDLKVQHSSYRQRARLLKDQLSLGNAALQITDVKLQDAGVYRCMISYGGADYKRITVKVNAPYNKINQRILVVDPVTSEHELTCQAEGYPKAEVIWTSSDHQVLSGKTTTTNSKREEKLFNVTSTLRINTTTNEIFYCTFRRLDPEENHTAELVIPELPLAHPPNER
Method: All steps were carried out at room temperature. […] This voltage signal is used to calculate the KD value and activity of the scFv using the “n-curve analysis” of the KinExA® Pro software version 4.1.9 or 4.2.10 (FIG. 5) using the option “titrant as analysis concentration reference”.
These mixtures were incubated for 5 hours.

[18] = molecular target: T7, human PD-L1-His (BioVision, USA, cat. …); experiment: ratio of KinExA KD values (scFv1 on PD-L1 Fc fusion as reference)

T1 sequence (Q9NZQ7 19-290): as the sequence (Q9NZQ7 19-290) above

B1: scFv1 (scFv)
scFv: EIVMTQSPSTLSASVGDRVIITCQASEDIYSLLAWYQQKPGKAPKLLIYDASDLASGVPSRFSGSGSGAEFTLTISSLQPDDFATYYCQGNYGSSSSSSYGAVFGQGTKLTVLGGGGGSGGGGSGGGGSGGGGSEVQLVESGGGLVQPGGSLRLSCTVSGIDLSSYTMGWVRQAPGKGLEWVGIISSGGRTYYASWAKGRFTISRDTSKNTVYLQMNSLRAEDTAVYYCARGRYTGYPYYFALWGQGTLVTVSS
notes: also called E. coli cell expressed scFv1
- Kd [1]: 0.0128 nM
- Kd [2]: 0.0088 nM
- binding result [3]: no binding (tested: 5 mcg/mL)
- binding result [4]: no binding
- EC50 (read off the curve) [5]: ~7 ng/mL
- Kd [6]: 0.0033 nM
- IC50 (read off the curve) [7]: 10 to 20 nM
- EC50 (read off the curve) [8]: ~7 ng/mL
- IC50, PD-1/PD-L1 blockade assay (luciferase, PD-L1 CHO cells and PD-1 Jurkat cells) [9]: 0.75 nM and 0.874 nM
- binding result [10]: no binding (tested: 5 mcg/mL)
- binding result [11]: no binding (tested: 5 mcg/mL)
- EC50 (read off the curve) [12]: ~7 ng/mL
- EC50 (read off the curve) [13]: ~7 ng/mL
- fold tighter affinity than to human PD-L1 [14]: 2.7 fold
- IC50 (read off the curve) [15]: ~1 nM

B2: CHO cell expressed scFv1 (scFv)
scFv: EIVMTQSPSTLSASVGDRVIITCQASEDIYSLLAWYQQKPGKAPKLLIYDASDLASGVPSRFSGSGSGAEFTLTISSLQPDDFATYYCQGNYGSSSSSSYGAVFGQGTKLTVLGGGGGSGGGGSGGGGSGGGGSEVQLVESGGGLVQPGGSLRLSCTVSGIDLSSYTMGWVRQAPGKGLEWVGIISSGGRTYYASWAKGRFTISRDTSKNTVYLQMNSLRAEDTAVYYCARGRYTGYPYYFALWGQGTLVTVSS
- IC50, PD-1/PD-L1 blockade assay (luciferase, PD-L1 CHO cells and PD-1 Jurkat cells) [9]: 0.602 nM

B3: IgG_1 (antibody, V domains shown)
VH: EVQLVESGGGLVQPGGSLRLSCTVSGIDLSSYTMGWVRQAPGKGLEWVGIISSGGRTYYASWAKGRFTISRDTSKNTVYLQMNSLRAEDTAVYYCARGRYTGYPYYFALWGQGTLVTVSS
VL: EIVMTQSPSTLSASVGDRVIITCQASEDIYSLLAWYQQKPGKAPKLLIYDASDLASGVPSRFSGSGSGAEFTLTISSLQPDDFATYYCQGNYGSSSSSSYGAVFGQGTKLEIKR
notes: Produced in CHO K1 cells; also called scFv1 converted into IgG format
- IC50 [16]: 0.327 nM
- Kd [17]: 0.00277 nM
- fold tighter affinity than scFv1 to PD-L1 [18]: ~3 fold

B4: IgG_4 (antibody, V domains shown)
VH: EVQLVESGGGVVRPGGSLRLSCAASGFTFDDYGMTWVRQAPGRGLEWVSGIHWHGKRTGYADSVKGRFTISRDNAKKSLYLQMNSLKGEDTALYHCVRGGMSTGDWFDPWGQGTLVIVSS
VL: DIQMTQSPSSLSASLGDRVTITCRASQSINSYLNWYQQKPGKAPKLLIYVASSLQSGVPSRFSGSGSGTEFTLTISNLQPEDFATYYCQQSYSTPPITFGQGTRLEIKR
notes: Produced in CHO K1 cells; also called H2M8314N as described in WO2015/112805A1
- IC50 [16]: 0.606 nM
